Measurements as given in patent CN114349852A.

What was measured:
[1] = biological target: H3N2流感病毒血凝素蛋白 (A/Texas/50/2012) (H3N2 influenza A virus (A/Texas/50/2012)); test: indirect ELISA on coated H3N2 hemagglutinin, ascites
[2] = biological target: H3N2流感病毒血凝素蛋白 (A/Texas/50/2012) (H3N2 influenza A virus (A/Texas/50/2012)); test: indirect ELISA on coated H3N2 hemagglutinin, hybridoma culture supernatant

B1: 抗H3N2流感病毒血凝素蛋白单克隆抗体ZJU32-01 (antibody, V domains shown)
VH: QVQLQQSGAELMKPGASVKISCKATGYIFSSYWIEWVKQRPGHGLEWIGEILPGSGRTNYKEIFKGKATFTADTSSNTAYMQLSSLTSEDSAVYYCARTRTTGSSDWGQGTTLTVSS
VL: DVLMTQTPLSLPVSLGDQASISCRSSQTTVHSNGNTYLEWYLQKPGQSPKLLIYKVSNRFFGVPDRFSGSGSGTDFTLKISRVEAEDLGVYYCFQGSHVPYTFGGGTKLEIK
[1]
  效价 (ELISA titer) (dilution (1:x)): 2048
[2]
  效价 (ELISA titer) (dilution (1:x)): 64
